Consider 1 substance from PMC3712487.

The experiment deals with p27^Kip1–His6 (UniProt P46527).
UniProt P46527, sequence (P46527 whole entry): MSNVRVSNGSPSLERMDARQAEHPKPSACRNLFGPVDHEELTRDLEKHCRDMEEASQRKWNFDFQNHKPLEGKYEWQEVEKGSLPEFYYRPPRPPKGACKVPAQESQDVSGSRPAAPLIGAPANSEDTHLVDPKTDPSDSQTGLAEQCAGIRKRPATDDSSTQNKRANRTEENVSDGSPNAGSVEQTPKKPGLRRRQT

Regarding “β1–His6 (full-length β1, wild type) (from UniProt P28072 1-239) (enzyme)”, the in vitro degradation of purified p27^Kip1–His6 (1 μg) by purified β1–His6 (2 μg) at 37°C, immunoblot, time course up to 90 min stood at 40%.
